Assay results reported in publication PMC6168201 (Neuron, 2018).

Tests used:
SEC-MALS = molecular target: the molecule itself; assay: SEC-MALS
AUC = molecular target: the molecule itself; assay: AUC
SEC = molecular target: the molecule itself; assay: SEC

Protein	stoichiometry N (SEC-MALS)	Kd (AUC) [µM]	stoichiometry N (SEC)
Pcdh15 EC1-3 (wild type) (domain or fragment) not shown	2	1.2	–
Pcdh15 EC1-3 Leu138Phe (domain or fragment) not shown	–	15.3	–
Pcdh15 EC1-3 Asp255Lys/Lys345Asp (domain or fragment) not shown	–	–	2
